# Results published in US20040248181A1, “Method and kit for enhancing extraction and quantification of target molecules using microdialysis” (priority 2003, published 2004).
# Experiment: Microdialysis sampling of cytokines across CMA-20 probe (10 mm polyethersulfone membrane, 100 kD MWCO) with multiplexed cytokine bead array / flow cytometry readout
# Type: physicochemical
# Details: control perfusion fluid without microspheres; flow rate 1.5 μl/min; quiescent phosphate buffer pH 7.4 containing 5000 pg/ml cytokines
# Experimental: Microdialysis probes (CMA-20) with a 10 mm polyethersulfone membrane (100 kDa MWCO) were purchased from CMA Microdialysis (Acton Mass.) and were used as received. For control experiments, the perfusion fluid contained the assay diluent from the BD Pharmingen kit. To enhance the transport of cytokines during the microdialysis sampling process, 5 μl of bead solution for each target analyte was combined and diluted to 250 μl with the assay diluent. […] Greater than 200 μl of fluid was allowed to pass through the microdialysis probe that was immersed into a standard containing 5000 pg/ml of IL-2, IL-4, IL-5, IFN-gamma, and TNF-alpha. After sample collection, the dialysates containing microspheres were reconstituted in 25 μl of assay diluent. Microspheres with coupled target analyte were then incubated with 25 μl phycoerythrin detection reagent for 2 hours and washed briefly prior to flow cytometric analysis.
# The dialysate samples were analyzed using a BD FACScan flow cytometer with the appropriate BD Biosciences software for this analysis.
# Different cytokines (e.g., mouse IL-2 (15 kD), IL-4 (20-25 kD), and TNF-α ([…])) have been successfully measured across microdialysis probes (CMA-20, 10 mm, polyethersulfone membrane, MWCO 100 kD) in a quiescent solution using a multiplexed cytokine bead array assay (BD Pharmingen). TNF-α has the largest molecular weight of the cytokines targeted for analysis in this example (Thorpe et al., “Detection and Measurement of Cytokines,” Blood Rev. 6:133-48 (1992), which is hereby incorporated by reference in its entirety). Only 25 μl of sample was needed to simultaneously measure all three of these cytokines in solution using the multiplexed bead array (Carson et al., “Simultaneous Quantitation of 15 Cytokines Using a Multiplexed Flow Cytometric Assay,” J. Immunol. Methods 227:41-52 (1999), which is hereby incorporated by reference in its entirety). […]
row,Molecule,microdialysis Ed (extraction efficiency) [%]
1,"IL-4: mouse cytokine, 20-25 kD; target analyte of microdialysis sampling",0.9±0.3
2,TNF-α,1.5±0.5
3,"IL-2: mouse cytokine, 15 kD; target analyte of microdialysis sampling (protein, UniProt P04351 21-169, looked up) Interleukin-2: APTSSSTSSSTAEAQQQQQQQQQQQQHLEQLLMDLQELLSRMENYRNLKLPRMLTFKFYLPKQATELKDLQCLEDELGPLRHVLDLTQSKSFQLEDAENFISNIRVTVVKLKGSDNTFECQFDDESATVVDFLRRWIAFCQSIISTSPQ",1.1±0.3
